Measurements published in paper PMC4821807, “Estrogen receptor alpha somatic mutations Y537S and D538G confer breast cancer endocrine resistance by stabilizing the activating function-2 binding conformation” (eLife, 2016).
Where two headings read alike, the source gives them in different places.

Experiments:
Y537S mutant ERα = test system: Y537S mutant ERα; set-up: method as in Toy et al., 2013; conditions: breast cancer cells, ref Toy et al., 2013; cited from earlier work
D538G mutant ERα = test system: D538G mutant ERα; set-up: method as in Toy et al., 2013; conditions: breast cancer cells, ref Toy et al., 2013; cited from earlier work
[1] = target: D538G estrogen receptor α ligand-binding domain (ERα amino acids 304–554), 6×His fusion, biotin-labelled at C417 (human) (UniProt P03372); test: FRET or BRET; time-resolved FRET, SRC titration, ER pre-saturated with 1 µM E2: SRC3-fluorescein titrated from 3.2×10^-7 to 3.2×10^-12 M into 1 nM biotinylated ERα LBD on 0.25 nM streptavidin-terbium
[2] = target: Y537S estrogen receptor α ligand-binding domain (ERα amino acids 304–554), 6×His fusion, biotin-labelled at C417 (human) (UniProt P03372); test: as above
[3] = target: wild type estrogen receptor α ligand-binding domain (ERα amino acids 304–554), 6×His fusion, biotin-labelled at C417 (human) (UniProt P03372); test: as above
[4] = target: D538G estrogen receptor α ligand-binding domain (ERα amino acids 304–554), 6×His fusion, biotin-labelled at C417 (human) (UniProt P03372); test: FRET or BRET; time-resolved FRET, SRC titration, no ligand (apo): SRC3-fluorescein titrated from 3.2×10^-7 to 3.2×10^-12 M into 1 nM biotinylated ERα LBD on 0.25 nM streptavidin-terbium; 96-well plates
[5] = target: Y537S estrogen receptor α ligand-binding domain (ERα amino acids 304–554), 6×His fusion, biotin-labelled at C417 (human) (UniProt P03372); test: as above
D538G ERα LBD = D538G ERα LBD (Homo sapiens, UniProt P03372, D538G, form not given); type: binding; conditions: for Kd: read-out: SRC-3 NRD Kd
Protocol: (§1) While bound to the Ni-NTA-agarose resin (Qiagen Inc., Santa Clarita, CA), the ERs were labeled with MAL-dPEG4-biotin (Quanta BioDesign, Powell, OH), site-specifically at C417. The SRC3-NRD construct has 4 cysteines and was labeled non-specifically, also while on the resin, with 5-iodoacetamido fluorescein (Molecular Probes, Invitrogen, Eugene, OR).
(§2) Diffusion-enhanced FRET was determined by a parallel incubation without biotinylated ER-LBD and subtracted as a background signal. […] The data, representing 2–3 replicate experiments, each with duplicate points, were analyzed using GraphPad Prism 4 and are expressed as the EC50 in nM.

WT ERα LBD = WT ERα LBD (Homo sapiens, UniProt P03372); type: binding; conditions: for SRC-3 NRD Kd: WT apo (absence of E2)
Protocol: as §1, §2

Y537S ERα LBD = Y537S ERα LBD (Homo sapiens, UniProt P03372, Y537S, form not given); type: binding; conditions: for Kd: read-out: SRC-3 NRD Kd
Protocol: as §1, §2

[6] = target: the molecule itself; test: crystal structure; D538G ERα LBD with 1 mM E2 and a 2.5-fold molar excess of GRIP peptide; hanging drop, 25% PEG 3,350, 200 mM MgCl2, 100 mM Tris pH 8.5, 1 mM phenylalanine

Q: Which results are given for CC/C(=C(\c1ccc(O)cc1)c1ccc(OCCN(C)C)cc1)c1ccccc1 [TOT, 4-hydroxytamoxifen]?
A: ablation of transcriptional activity of the mutant (Y537S mutant ERα): could not; ablation of transcriptional activity of the mutant (D538G mutant ERα): could not

Q: For C[C@]12CC[C@@H]3c4ccc(O)cc4C[C@@H](CCCCCCCCC[S+]([O-])CCCC(F)(F)C(F)(F)F)[C@H]3[C@@H]1CC[C@@H]2O (stereo partly shown) [fulvestrant], which “ablation of transcriptional activity of the mutant” value (Y537S mutant ERα) is on record?
A: completely ablate

Q: And the “ablation of transcriptional activity of the mutant” value (D538G mutant ERα)?
A: completely ablate

Q: Which results are given for “steroid receptor coactivator 3 nuclear receptor domain (amino acids 627–829), fluorescein-labelled (from UniProt Q9Y6Q9 627-829) (domain or fragment)”?
A: Kd [1]: 3.65 nM; Kd [2]: 0.59 nM; Kd [3]: 2.67 nM; Kd [4]: 151 nM; Kd [5]: 13.6 nM

B1: SRC3 NRD: steroid receptor coactivator 3 nuclear receptor domain, human, amino acids 627–829, fluorescein labeled (protein)
chain: CSSDDRGHSSLTNSPLDSSCKESSVSVTSPSGVSSSTSGGVSSTSNMHGSLLQEKHRILHKLLQNGNSPAEVAKITAEATGKDTSSITSCGDGNVVKQEQLSPKKKENNALLRYLLDRDDPSDALSKELQPQVEGVDNKMSQCTSSTIPSSSQEKDPKIKTETSEEGSGDLDNLDAILGDLTSSDFYNNSISSNGSHLGTKQQ
modifications: 5-iodoacetamido fluorescein on cysteines, non-specific (4 cysteines; an average of 1.8–2 fluorescein molecules attached); left off: His tag (inferred from the labelling on the resin), end not stated,
Q: With B1 as the molecule, how does the Kd (D538G ERα LBD; D538G apo (absence of E2)) read?
A: 151 ± 20 nM

Q: What about the Kd (D538G ERα LBD; D538G pre-saturated with E2 (1 µM ligand)) of the same molecule?
A: 3.65 ± 0.4 nM

Q: And the “SRC3 binding curve plateau, of the maximum” value (D538G ERα LBD; D538G, absence of E2)?
A: approximately 60%

Q: What about the “SRC-3 NRD Kd” value (WT ERα LBD) of the same molecule?
A: no binding was detected

Q: What about the “SRC-3 NRD Kd” value (WT ERα LBD; listed as SRC-3 NRD) of the same molecule?
A: No Recruitment

Q: And the Kd (WT ERα LBD; WT saturated with E2 (1 µM ligand), read-out: SRC-3 NRD Kd)?
A: 2.67 ± 0.5 nM

Q: What about the Kd (Y537S ERα LBD; Y537S apo (absence of E2)) of the same molecule?
A: 13.6 ± 2 nM

Q: And the Kd (Y537S ERα LBD; Y537S pre-saturated with E2 (1 µM ligand))?
A: 0.59 ± 0.1 nM

Q: What about the “SRC3 binding curve plateau, of the maximum” value (Y537S ERα LBD; Y537S, absence of E2) of the same molecule?
A: approximately 60%

B2: ERα LBD D538G mutant (crystallisation construct, 6×His-TEV tag removed) (domain or fragment, human)
chain: KRSKKNSLALSLTADQMVSALLDAEPPILYSEYDPTRPFSEASMMGLLTNLADRELVHMINWAKRVPGFVDLTLHDQVHLLECAWLEILMIGLVWRSMEHPGKLLFAPNLLLDRNQGKCVEGMVEIFDMLLATSSRFRMMNLQGEEFVCLKSIILLNSGVYTFLSSTLKSLEEKDHIHRVLDKITDTLIHLMAKAGLTLQQQHQRLAQLLLILSHIRHMSNKGMEHLYSMKCKNVVPLYGLLLEMLDAHRLHAPTS
notes: Unresolved residues were not included in the deposited structures; also called apo D538G; D538G-E2; source: E. coli BL21 (DE3), purified (Ni-NTA, TEV cleavage, Resource Q ion exchange)
Q: Does B2 bind [6]?
A: binds
